The results in this text go back to the supplement of paper PMC10567573.

The labels stand for the following.
B1: RAB22A (parent)
chain: FVEDSFDPNINPTIGASFMTKTVQ
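Also: lentivirally expressed fusions sorted by FACS into six bins by GFP to DsRed ratio, PSI derived from sequencing read proportions per bin multiplied by bin number.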

The data set covers variants of B1. Put plainly: protein stability index of a GFP-peptide fusion (GPS, HEK-293T) (PSI 1-6); higher = more stable. As to conditions: c terminus: a fixed tail appended.
As for FVEDSFQPNINPTIGASFMTKTVQ, the protein stability index amounted to 1.98.

Consider FVEDSFCPNINPTIGASFMTKTVQ, for which the protein stability index amounted to 1.98.

Consider FVEDSFYPNINPTIGASFMTKTVQ, for which the protein stability index was determined as 1.67.

In the case of FVEDSFNPNINPTIGASFMTKTVQ, the protein stability index is 1.61.

As for FVEDSFWPNINPTIGASFMTKTVQ, the protein stability index is 3.07.

For the variant FVEDSFEPNINPTIGASFMTKTVQ, the protein stability index is 2.36.

For the variant FVEDSFFPNINPTIGASFMTKTVQ, the protein stability index was 2.75.

Turning to FVEDSFKPNINPTIGASFMTKTVQ, the protein stability index was 2.09.

For FVEDSFDPSINPTIGASFMTKTVQ, the protein stability index came out at 2.51.

On to FVEDSFDPHINPTIGASFMTKTVQ, for which the protein stability index came to 2.22.

Consider FVEDSFDPGINPTIGASFMTKTVQ, for which the protein stability index was found to be 2.78.

With FVEDSFDPPINPTIGASFMTKTVQ, the protein stability index was 2.49.

Regarding FVEDSFDPYINPTIGASFMTKTVQ, the protein stability index was 1.72.

With FVEDSFDPWINPTIGASFMTKTVQ, the protein stability index was 2.65.

For the variant FVEDSFDPCINPTIGASFMTKTVQ, the protein stability index worked out at 2.08.

Turning to FVEDSFDPQINPTIGASFMTKTVQ, the protein stability index was 2.1.

Take FVEDSFDPVINPTIGASFMTKTVQ: the protein stability index worked out at 2.04.

For FVEDSFDPFINPTIGASFMTKTVQ, the protein stability index was 1.92.

As to FVEDSFDPTINPTIGASFMTKTVQ, the protein stability index was 2.26.

Turning to FVEDSFDPEINPTIGASFMTKTVQ, the protein stability index came to 2.47.

In the case of FVEDSFDPLINPTIGASFMTKTVQ, the protein stability index amounted to 1.66.

On to FVEDSFDPDINPTIGASFMTKTVQ, for which the protein stability index was determined as 2.73.

On to FVEDSFDPMINPTIGASFMTKTVQ, for which the protein stability index came to 2.35.

Turning to FVEDSFDPAINPTIGASFMTKTVQ, the protein stability index worked out at 2.25.

As to FVEDSFDPIINPTIGASFMTKTVQ, the protein stability index was 2.23.

Consider FVEDSFDPRINPTIGASFMTKTVQ, for which the protein stability index worked out at 1.95.

For the variant FVEDSFDPKINPTIGASFMTKTVQ, the protein stability index worked out at 1.88.

With FVEDSWDPNINPTIGASFMTKTVQ, the protein stability index was found to be 1.76.

Regarding FVEDSIDPNINPTIGASFMTKTVQ, the protein stability index stood at 2.56.

For FVEDSLDPNINPTIGASFMTKTVQ, the protein stability index is 2.56.

On to FVEDSPDPNINPTIGASFMTKTVQ, for which the protein stability index was 2.74.

Take FVEDSMDPNINPTIGASFMTKTVQ: the protein stability index worked out at 2.69.

FVEDSADPNINPTIGASFMTKTVQ: the protein stability index was determined as 2.83.

With FVEDSDDPNINPTIGASFMTKTVQ, the protein stability index stood at 3.85.

Consider FVEDSCDPNINPTIGASFMTKTVQ, for which the protein stability index came to 2.67.

For the variant FVEDSGDPNINPTIGASFMTKTVQ, the protein stability index is 3.27.

For the variant FVEDSTDPNINPTIGASFMTKTVQ, the protein stability index is 2.89.

In the case of FVEDSSDPNINPTIGASFMTKTVQ, the protein stability index stood at 2.99.

FVEDSRDPNINPTIGASFMTKTVQ: the protein stability index is 2.36.

Turning to FVEDSKDPNINPTIGASFMTKTVQ, the protein stability index came out at 2.71.

For FVEDSQDPNINPTIGASFMTKTVQ, the protein stability index is 2.88.

For FVEDSHDPNINPTIGASFMTKTVQ, the protein stability index came out at 2.58.

On to FVEDSEDPNINPTIGASFMTKTVQ, for which the protein stability index turned out to be 4.08.

FVEDSNDPNINPTIGASFMTKTVQ: the protein stability index turned out to be 2.9.

Turning to FVEDSYDPNINPTIGASFMTKTVQ, the protein stability index turned out to be 2.02.

Consider FVEDSVDPNINPTIGASFMTKTVQ, for which the protein stability index worked out at 3.31.

With FSEDSFDPNINPTIGASFMTKTVQ, the protein stability index turned out to be 3.99.

As to FQEDSFDPNINPTIGASFMTKTVQ, the protein stability index was 3.8.

As for FMEDSFDPNINPTIGASFMTKTVQ, the protein stability index turned out to be 3.62.

Turning to FLEDSFDPNINPTIGASFMTKTVQ, the protein stability index turned out to be 3.29.

Consider FTEDSFDPNINPTIGASFMTKTVQ, for which the protein stability index was 3.68.

Consider FYEDSFDPNINPTIGASFMTKTVQ, for which the protein stability index was determined as 3.19.

In the case of FPEDSFDPNINPTIGASFMTKTVQ, the protein stability index turned out to be 4.33.

For FWEDSFDPNINPTIGASFMTKTVQ, the protein stability index was determined as 2.51.

Regarding FREDSFDPNINPTIGASFMTKTVQ, the protein stability index is 3.48.

Turning to FNEDSFDPNINPTIGASFMTKTVQ, the protein stability index was determined as 3.62.

In the case of FVEDSFDPNIMPTIGASFMTKTVQ, the protein stability index worked out at 2.14.

Take FVEDSFDPNIVPTIGASFMTKTVQ: the protein stability index stood at 2.24.

As for FVEDSFDPNIDPTIGASFMTKTVQ, the protein stability index turned out to be 2.56.

With FVEDSFDPNIFPTIGASFMTKTVQ, the protein stability index turned out to be 1.82.

On to FVEDSFDPNISPTIGASFMTKTVQ, for which the protein stability index came out at 2.04.

As for FVEDSFDPNIYPTIGASFMTKTVQ, the protein stability index worked out at 2.16.

Take FVEDSFDPNITPTIGASFMTKTVQ: the protein stability index turned out to be 2.4.

Turning to FVEDSFDPNIIPTIGASFMTKTVQ, the protein stability index turned out to be 2.23.

As to FVEDSFDPNIWPTIGASFMTKTVQ, the protein stability index is 2.41.

Turning to FVEDSFDPNIQPTIGASFMTKTVQ, the protein stability index stood at 2.48.

Turning to FVEDSFDPNIEPTIGASFMTKTVQ, the protein stability index was 2.58.

For FVEDSFDPNIPPTIGASFMTKTVQ, the protein stability index came to 2.43.

With FVEDSFDPNILPTIGASFMTKTVQ, the protein stability index was 1.85.

As to FVEDSFDPNIRPTIGASFMTKTVQ, the protein stability index stood at 1.75.

As to FVEDSFDPNIHPTIGASFMTKTVQ, the protein stability index amounted to 1.85.

In the case of FVEDSFDPNIGPTIGASFMTKTVQ, the protein stability index was 2.07.

Consider FVEDSFDPNIKPTIGASFMTKTVQ, for which the protein stability index amounted to 2.47.

Take FVEDSFDPNIAPTIGASFMTKTVQ: the protein stability index was found to be 2.42.

As for FVEDSFDPNICPTIGASFMTKTVQ, the protein stability index worked out at 2.46.

For FVEHSFDPNINPTIGASFMTKTVQ, the protein stability index came to 1.36.

On to FVEYSFDPNINPTIGASFMTKTVQ, for which the protein stability index came to 2.98.

Turning to FVEKSFDPNINPTIGASFMTKTVQ, the protein stability index worked out at 1.52.

Consider FVECSFDPNINPTIGASFMTKTVQ, for which the protein stability index is 1.66.

For FVEFSFDPNINPTIGASFMTKTVQ, the protein stability index was determined as 3.14.

Regarding FVEQSFDPNINPTIGASFMTKTVQ, the protein stability index was 1.82.

For FVENSFDPNINPTIGASFMTKTVQ, the protein stability index was found to be 2.23.

In the case of FVESSFDPNINPTIGASFMTKTVQ, the protein stability index came out at 1.65.

As to FVETSFDPNINPTIGASFMTKTVQ, the protein stability index was found to be 1.89.

Consider FVEVSFDPNINPTIGASFMTKTVQ, for which the protein stability index came to 2.36.

For FVEASFDPNINPTIGASFMTKTVQ, the protein stability index came out at 1.63.

As to FVEESFDPNINPTIGASFMTKTVQ, the protein stability index came to 2.52.

As for FVEPSFDPNINPTIGASFMTKTVQ, the protein stability index amounted to 1.78.

With FVEMSFDPNINPTIGASFMTKTVQ, the protein stability index amounted to 2.23.

FVERSFDPNINPTIGASFMTKTVQ: the protein stability index is 1.7.

As to FVEWSFDPNINPTIGASFMTKTVQ, the protein stability index is 2.1.

FVELSFDPNINPTIGASFMTKTVQ: the protein stability index is 2.38.

For FVEGSFDPNINPTIGASFMTKTVQ, the protein stability index worked out at 2.02.

Take FVEISFDPNINPTIGASFMTKTVQ: the protein stability index was determined as 3.06.
